Key:
SP6 wild type = target: T1, SP6 wild type (Homo sapiens, UniProt Q3SY56 1-376); experiment: SPR; up to 400 nM; data not shown; Biacore 3000 SPR, 10 mM HEPES pH 7.5, 200 mM NaCl, 0.01% surfactant P-20, 25 C, 40 uL/min, protein 6.25-400 nM, DNA on SA chip; conditions: protein: recombinant; tags: N-terminal His-GST; label: 5'-biotin on forward strand; blunt
T1 sequence: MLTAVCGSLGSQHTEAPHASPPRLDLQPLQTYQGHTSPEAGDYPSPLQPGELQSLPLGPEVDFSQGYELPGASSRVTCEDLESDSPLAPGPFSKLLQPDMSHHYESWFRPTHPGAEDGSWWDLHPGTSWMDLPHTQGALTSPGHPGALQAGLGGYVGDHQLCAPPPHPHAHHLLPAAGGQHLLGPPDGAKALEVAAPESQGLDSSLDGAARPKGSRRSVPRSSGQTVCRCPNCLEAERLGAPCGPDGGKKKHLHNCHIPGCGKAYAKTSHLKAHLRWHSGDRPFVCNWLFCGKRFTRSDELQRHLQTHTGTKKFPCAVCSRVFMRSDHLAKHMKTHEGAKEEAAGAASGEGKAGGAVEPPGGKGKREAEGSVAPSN

SP6 p.(Ala273Lys) = target: T2, SP6 p.(Ala273Lys) (Homo sapiens, UniProt Q3SY56 1-376, A273K); experiment: as above; conditions: protein: recombinant; tags: N-terminal His-GST; label: 5'-biotin on forward strand; blunt
T2 sequence: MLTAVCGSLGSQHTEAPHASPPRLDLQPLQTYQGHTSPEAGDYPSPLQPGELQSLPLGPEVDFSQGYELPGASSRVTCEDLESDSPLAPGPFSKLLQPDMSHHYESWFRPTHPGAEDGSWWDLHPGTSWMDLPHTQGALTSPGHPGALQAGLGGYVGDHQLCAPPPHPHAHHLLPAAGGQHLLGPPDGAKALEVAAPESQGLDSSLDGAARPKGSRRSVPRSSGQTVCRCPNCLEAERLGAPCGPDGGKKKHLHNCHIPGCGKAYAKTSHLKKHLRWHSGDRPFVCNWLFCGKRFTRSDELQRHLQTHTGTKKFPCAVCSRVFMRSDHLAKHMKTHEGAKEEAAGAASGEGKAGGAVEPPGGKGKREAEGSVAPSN

B1: NKX2-1 promoter probe (SP3 site control) (dsDNA)
DNA 1: GGGATCCGGGACAGCCTCCGGGAGGCAGTCGATCCCCTAC
DNA 2: GTAGGGGATCGACTGCCTCCCGGAGGCTGTCCCGGATCCC
Does B1 bind (SP6 wild type)?
Result: no binding

Does B1 bind (SP6 p.(Ala273Lys))?
Result: no binding

Reference: publication PMC7268548, “A missense variant in specificity protein 6 (SP6) is associated with amelogenesis imperfecta”
